Experimental findings from the domain aggregation screens of Martell et al. (2025) are described below.

A short description of the data set: soluble fraction after stress (log2 fold change); higher = more stays soluble; pooled small domains, quantitative proteomics. The conditions noted are these: stress: 75 degC.
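Also: 20 min heating vs room temperature control held 20 min.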

On to “HMLLTASNYFKETKGINFSELPEALQKGHSFVIKSTENGTNWNAYSTSQNIQRVIDAYFSKLDEYLEKNQ”, for which the “soluble fraction (log2)” value is -0.578.

For “HMLLTHEEQIVKRGWQAPVGPFAILDSRAEAMHGDLEMLRGDREAAEQHFRRAWQIIGPIVEQ”, the “soluble fraction (log2)” value is -0.0144.

With “HMLMKILTDALEKMSPEELKELAEATGVKNTSSITPETMVGVFQAVFRVGGFKSYQLTLIIVNAVLKA”, the “soluble fraction (log2)” value is -0.148.

For the sequence “HMLMRKAEVGVESLNLRHGPGTQYKVLEILPGGKSLHYLAEPRRGWVRVTTEEGTTGWTFLKFLKPE”, the “soluble fraction (log2)” value was -2.22.

With “HMLNENNHGEWSIRMSNGLVVRLGRDELNRSLRRSIMAYAGLAPNYRSSIEYIDARYLGGVALKTF”, the “soluble fraction (log2)” value is -0.159.

As to “HMLNKRQAEILAEVSRLKEITPSELYKLQPNVSSRTLRRDMDVLVNKGLVSQDGSTKSTKYTYL”, the “soluble fraction (log2)” value turned out to be 0.193.

Turning to “HMLNMTLGDRIRSRREELRMSQEELATRLGYKSRSTIAKIESGENDLTQSKIVAFAEALSTTARWLLDY”, the “soluble fraction (log2)” value is -1.88.

Regarding “HMLNVNDVIARNVRAARERKKLTLDGAAELTGVSRSMLAQIEKGEVNPTISVVWKIANGFKVSFTSLVEPQ”, the “soluble fraction (log2)” value was -3.85.

With “HMLPAGSDAILRYLSSGAVKGIGVATAARIVEKFGDETLRILEEEPGRLAEIKGITAAKAKAIGEAFAGQ”, the “soluble fraction (log2)” value was -0.356.

For the sequence “HMLPELIVTTKKGVTVTVTNGVITYSATSNGKATFTVPNYGKWTVSATINGTVISKVVDVTEAKQIPVLLG”, the “soluble fraction (log2)” value is -1.07.

With “HMLPERIQTIVALIGHGRAMDLVREFGGQEIKFPAQEGNDTWAALVEVIGEAATRKLAAVFGGGQAPPVYI”, the “soluble fraction (log2)” value was -1.17.

As to “HMLPGVPVVAGKTQSAATRILKAAGYAVSVVREEAFDGVTGTVLRTSPEAGSPLAPGSRVTLVVLQVV”, the “soluble fraction (log2)” value was -2.22.

On to “HMLPGWMETKFTANVSENTKNRTLEEHVLKMLNNKESAAEFIIFLHEKMMSVSGQVFQLDSR”, for which the “soluble fraction (log2)” value is -0.013.

Consider “HMLPIGSSREQVISSLNKMHQDYKEEGNFIYAGYFKQGLPLVPSPRISIALQFNETAHLEKIDATLNYV”, for which the “soluble fraction (log2)” value was -0.343.

In the case of “HMLPKLAEEYAIMEIRGKGENLTAKLINKGGDSFMVRNGTVLQTGHRIDEITQTYVRAEINGMKDYLYFA”, the “soluble fraction (log2)” value was -0.645.

Consider “HMLPLLAFDEKLNRLGYGGGFYDRTLASLAHKGNTITAIGIAYESQKMDKVPTGYFDRPLDGVLTPSGLIM”, for which the “soluble fraction (log2)” value turned out to be 0.0528.

“HMLPNLWVMGPGDHLWRVAEVAMTKHLGRPVANHEIDGYWRRLVALNRESLIDPDNPDLVFAGQVIELPPF”: the “soluble fraction (log2)” value was -2.59.

On to “HMLPQGKGTAMWLADHLAAASVTLDAGARKLLEDTLGEDMSRLPGVLRVLEATFGSDAGRLSAEDIEPFL”, for which the “soluble fraction (log2)” value stood at 0.075.

For “HMLPRNKRIEIALTYIYGLGRHAATVVLKHANISPDKRTDDLDENDVRKLRDAIDANFRVEGDLRR”, the “soluble fraction (log2)” value was -1.55.

In the case of “HMLPTVSITGHIFIRSGSPLNRIFVGEKIYHVGDHIDRDWVIESIGIDTLTIRSGTLSTQLPL”, the “soluble fraction (log2)” value was -2.99.

For “HMLPVFNYQVYRTHGLIYVYAKDNDSFDQIARSMGFKAKQLMKFNEVPEDFPLQAGDIVYLEKKKK”, the “soluble fraction (log2)” value was -2.35.

Turning to “HMLPVLEIGTMIRIIRQPHFGTIARVVALPEELTKVESETLVRILDAEFDDGTRVRIPRANVEVIE”, the “soluble fraction (log2)” value is -3.04.

Take “HMLPYGDRRRHTDNTISRIRELAAALDDSGIADRLNQDGYVTPEGKPFTYAGVRWIRYKYDISGPYERN”: the “soluble fraction (log2)” value is -1.91.

Regarding “HMLQKVELSDNEKFIFDSLQKEQKMALLRLKELVNLSNKAWDVSVKNLTKQGLVKVTKIDEELLIEI”, the “soluble fraction (log2)” value is -0.845.

Take “HMLQPQMKKFLNYESARNKMRPFGLSTRKEWRLFVDEGNRPADIPGDPYKKYKNKGWISWPHFLGK”: the “soluble fraction (log2)” value was -1.42.

For “HMLRDTTLLHIDSIVRDGSTAMANITVRDEGTDLEFPLQLRMERGDMGWQVVRIVNYRAYLEAVQKA”, the “soluble fraction (log2)” value was -0.351.

Turning to “HMLRGKNALMSQLDQIQGIGPKRKRALFNHFLTLDAIKQADVETLRQAPGMNLPAAEQVYRHFHM”, the “soluble fraction (log2)” value was -0.2.

In the case of “HMLRIIDYNRVVKDLNGLTPEQLLEKLAESFTVEDKGTEEYRPTELHNFSMYLGGHWYSLTAKPGTYDDND”, the “soluble fraction (log2)” value is -1.2.

With “HMLRMTRNRQKLVEVLMESGRPLSADEIREAAGFASTDLVTVYRNLEAFQSAGLLQRIPLENGSQLFELT”, the “soluble fraction (log2)” value is -0.46.

In the case of “HMLRNDEAVMLGRRLLNKHLQAFSVQIKDISHQRIHDLLDELELESLDHLLDDIGLGNRSVFLVAQKLLQ”, the “soluble fraction (log2)” value is -1.48.

Turning to “HMLRQRVFRIIQNNINSKNYFVYTKQILAELAGISMRSLNRTLSELQNDRLIIVDSGTIRLFT”, the “soluble fraction (log2)” value was -3.12.

For the sequence “HMLRVGASVTANGKYWYDSYGSKPFGTANNLSTTVTRIVPGNPYPIHIGSYGWLQESQIQIT”, the “soluble fraction (log2)” value is -1.67.

As to “HMLSDADLAAFREVFDLVDKDKSGAIEMEEVEELTKLLGLDLTRDEVELLVREIDKDGNGEVDFEEFLLVM”, the “soluble fraction (log2)” value was determined as 0.00598.

With “HMLSDHGLNDRQIMVIAGLMNGGTVTVRSIESQYGVSLNTARADVKMLVDAGLLTETGREVNMKVYSWSGK”, the “soluble fraction (log2)” value was -2.05.

“HMLSDSDTLRDLYLSEQIWNVGDLIRVKGKNDDTHPSWEIIRRGTNYITAIDENYKSHKVWLHDIDI”: the “soluble fraction (log2)” value was -1.3.

Consider “HMLSEKELLELLNRAKSNYNGITKKGIEAIALKYQGYSNVEIANLYHVKANHISAWISRARSRLKADY”, for which the “soluble fraction (log2)” value came to 0.07.

“HMLSNLYAVLGVGRRATPDEITAAFDAWNARADAGEPIDDPLWERVRYAWDVLSSPSRRDLYDSLVDDATG”: the “soluble fraction (log2)” value is -1.74.

On to “HMLSSREEKILNYLNEHQIITRKKAQELLETSQSTAGRVLKIMVDNGLIVQYGGSRSIWYELIK”, for which the “soluble fraction (log2)” value was -1.79.

Regarding “HMLSTGIIIGDNVALRKTASSNGGIITRLDEGTVVKILASNVNAEWYQVEAGTKTGYVNRLYVNID”, the “soluble fraction (log2)” value is -1.07.

As to “HMLSTGQLIRYYRKRAGMTQAELAEEVEMSEPGIRNYELGNRTPSKAQLSAIARGLGIEPEALI”, the “soluble fraction (log2)” value is -0.63.

As for “HMLSVKEQTYQIIKEKILNQEYPAGARININELAEELGISNSPIREALSLLEQQGLVISNRSSGATVT”, the “soluble fraction (log2)” value is -0.176.

Consider “HMLSVLKNVDVNSLSDDKIKTYWQQIQKSGYTLDEVEVLAEAQGISPLKIAAFKRRVQSLQQSLQT”, for which the “soluble fraction (log2)” value is 0.311.

As for “HMLSYDDTVVIGRNLLENAMKQKNIALEQLTDEVLARLAKELQVESVEAMYAGIGSGKRPSSFIINRLEAH”, the “soluble fraction (log2)” value was -0.75.

For “HMLSYFKIIKNGLVREGPASYYKIAENLEIGTIVQAFEKHDDWYLIKTHSGRIGWIVASDVTPQV”, the “soluble fraction (log2)” value was -3.62.

Take “HMLTAHEAILKELRKMLLTGVLSPGEAVRPEIIGESFGVSAVPVREALRILEGEGQVLNRPHKGYVVT”: the “soluble fraction (log2)” value is -0.904.

With “HMLTANPEEVVNRLTSAGEVGVRPLLDVDDPINAISTLLAIREDVYKQFAQFDTVGKSPSEIAHEIDDFL”, the “soluble fraction (log2)” value was determined as 0.11.

Turning to “HMLTEERLQIITDTVNSRSSVTIAELSRILDVSPSTVKRDLNILAEAGKITKVRGGAIALGE”, the “soluble fraction (log2)” value is -0.285.

“HMLTGDVDRYKDFFIALEKTSPVPIGFEKIIGGAHGYYHLEDKRIAIDEGMSELQTLKTAIHEIAHAKLHD”: the “soluble fraction (log2)” value is -0.312.

For “HMLTGNTAKLFAHLVEVMNPKEFVKINRQTVIVEAGIPRGSVGAAIAKLLETGHLIANASGAYKLT”, the “soluble fraction (log2)” value stood at 0.278.

Regarding “HMLTIEEYLTQLKKLMKDRDAATVRDALSDAEEHLRNAMAGEDPSRLDGIIEEYGSPEEIAAAYKIMEEHT”, the “soluble fraction (log2)” value is -0.082.
